# Source: paper PMC3359993
# Where two headings read alike, the source gives them in different places.
# T1: Rel-49, the C-terminal IkB domain of Relish, N-terminal StrepTagII and C-terminal His tag (Drosophila melanogaster)
# T1 sequence (Q94527 whole entry, looked up): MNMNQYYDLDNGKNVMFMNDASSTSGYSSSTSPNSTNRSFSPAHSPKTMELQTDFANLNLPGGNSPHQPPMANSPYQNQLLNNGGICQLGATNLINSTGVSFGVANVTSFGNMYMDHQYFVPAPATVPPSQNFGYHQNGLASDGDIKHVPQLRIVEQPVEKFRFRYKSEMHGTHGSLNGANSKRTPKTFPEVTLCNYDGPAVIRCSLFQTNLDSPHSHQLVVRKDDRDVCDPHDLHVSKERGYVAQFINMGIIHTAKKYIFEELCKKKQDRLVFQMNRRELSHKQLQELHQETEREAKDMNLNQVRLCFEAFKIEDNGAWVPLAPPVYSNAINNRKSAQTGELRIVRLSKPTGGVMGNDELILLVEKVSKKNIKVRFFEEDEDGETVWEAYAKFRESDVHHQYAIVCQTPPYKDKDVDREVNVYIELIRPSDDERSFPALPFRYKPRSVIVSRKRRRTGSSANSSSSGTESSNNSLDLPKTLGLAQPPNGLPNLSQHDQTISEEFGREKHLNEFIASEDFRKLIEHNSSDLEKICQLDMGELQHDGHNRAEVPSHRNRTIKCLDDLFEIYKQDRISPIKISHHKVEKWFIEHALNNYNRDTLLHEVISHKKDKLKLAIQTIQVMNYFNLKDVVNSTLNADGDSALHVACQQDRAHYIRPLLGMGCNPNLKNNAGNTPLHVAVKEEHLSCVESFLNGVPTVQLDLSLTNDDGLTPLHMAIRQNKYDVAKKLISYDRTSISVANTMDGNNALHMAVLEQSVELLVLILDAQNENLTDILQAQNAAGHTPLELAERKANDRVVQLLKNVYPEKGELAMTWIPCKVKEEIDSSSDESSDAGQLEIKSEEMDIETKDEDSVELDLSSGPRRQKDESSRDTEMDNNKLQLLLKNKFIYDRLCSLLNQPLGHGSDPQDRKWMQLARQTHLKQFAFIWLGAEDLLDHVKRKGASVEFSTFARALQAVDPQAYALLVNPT
# B1: Relish, truncated (RHD, NLS and 20 additional C-terminal residues), StrepTagII-tagged (domain or fragment)
# chain: KHVPQLRIVEQPVEKFRFRYKSEMHGTHGSLNGANSKRTPKTFPEVTLCNYDGPAVIRCSLFQTNLDSPHSHQLVVRKDDRDVCDPHDLHVSKERGYVAQFINMGIIHTAKKYIFEELCKKKQDRLVFQMNRRELSHKQLQELHQETEREAKDMNLNQVRLCFEAFKIEDNGAWVPLAPPVYSNAINNRKSAQTGELRIVRLSKPTGGVMGNDELILLVEKVSKKNIKVRFFEEDEDGETVWEAYAKFRESDVHHQYAIVCQTPPYKDKDVDREVNVYIELIRPSDDERSFPALPFRYKPRSVIVSRKRRRTGSSANSSSSGTESSNNSLD
# modifications: not checked
# B2: Relish, truncated (RHD, NLS and 20 additional C-terminal residues), N-terminal thioredoxin fusion (domain or fragment)
# chain: B1 chain
# modifications: not checked
# B3: Dorsal, truncated (RHD, NLS and 20 additional C-terminal residues), StrepTagII-tagged (domain or fragment)
# chain: PYVKITEQPAGKALRFRYECEGRSAGSIPGVNSTPENKTYPTIEIVGYKGRAVVVVSCVTKDTPYRPHPHNLVGKEGCKKGVCTLEINSETMRAVFSNLGIQCVKKKDIEAALKAREEIRVDPFKTGFSHRFQPSSIDLNSVRLCFQVFMESEQKGRFTSPLPPVVSEPIFDKKAMSDLVICRLCSCSATVFGNTQIILLCEKVAKEDISVRFFEEKNGQSVWEAFGDFQHTDVHKQTAITFKTPRYHTLDITEPAKVFIQLRRPSDGVTSEALPFEYVPMDSDPAHLRRKRQKTGGDPMHLLLQQQQKQQLQN
# modifications: not checked
# B4: Dorsal, truncated (RHD, NLS and 20 additional C-terminal residues), N-terminal thioredoxin fusion (domain or fragment)
# chain: B3 chain
# modifications: not checked
# Key:
# [1] = target: Ank-N5 of Microplitis demolitor bracovirus, full length, N-terminal His tag (Microplitis demolitor bracovirus (MdBV)); assay: SPR; Biacore 3000, room temperature; IkB or Ank immobilised on CM5 by amine coupling (about 5500 RU); Rel homodimer as analyte, kinetic titration, five doubling injections (typically 160 nM to 2.56 uM), 60 or 90 s, 30 uL/min; 10 mM HEPES pH 7.4, 150 mM NaCl, 3.4 mM EDTA, 0.005% P20; 1:1 Langmuir …
# [2] = target: T1, Rel-49, the C-terminal IkB domain of …; assay: as above
# [3] = target: T2, Ank-H4 of Microplitis demolitor bracovirus, full length, N-terminal His tag (Microplitis demolitor bracovirus (MdBV)); assay: as above
# [4] = target: Relish, truncated (RHD, NLS and 20 additional C-terminal residues), StrepTagII-tagged (Drosophila melanogaster); assay: SEC; gel filtration of each purified recombinant protein, compared with molecular mass standards
# [5] = target: Relish, truncated (RHD, NLS and 20 additional C-terminal residues), N-terminal thioredoxin fusion (Drosophila melanogaster); assay: as above
# [6] = target: Dorsal, truncated (RHD, NLS and 20 additional C-terminal residues), StrepTagII-tagged (Drosophila melanogaster); assay: as above
# [7] = target: T2, Ank-H4 of Microplitis demolitor …; assay: SPR; Biacore 3000, room temperature; IkB or Ank immobilised on CM5 by amine coupling (about 5500 RU); Rel homodimer as analyte, kinetic titration, five doubling injections (typically 160 nM to 2.56 uM), 60 or 90 s, 30 uL/min; 10 mM HEPES pH 7.4, 150 mM NaCl, 3.4 mM EDTA, 0.005% P20; 1:1 Langmuir …; remark: listed apart in the source
# [8] = target: Dorsal, truncated (RHD, NLS and 20 additional C-terminal residues), N-terminal thioredoxin fusion (Drosophila melanogaster); assay: SEC; gel filtration of each purified recombinant protein, compared with molecular mass standards
# T2 sequence (Q5I144 whole entry, the tested form may be a part): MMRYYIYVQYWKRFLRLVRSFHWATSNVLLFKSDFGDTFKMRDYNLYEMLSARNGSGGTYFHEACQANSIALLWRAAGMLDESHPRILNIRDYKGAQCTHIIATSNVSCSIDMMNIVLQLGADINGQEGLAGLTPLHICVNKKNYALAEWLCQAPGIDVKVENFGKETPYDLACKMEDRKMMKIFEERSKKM
# Ank-N5 of Microplitis demolitor bracovirus, full length, N-terminal His tag (Microplitis demolitor bracovirus (MdBV)), sequence (Q5I126 whole entry, the tested form may be a part): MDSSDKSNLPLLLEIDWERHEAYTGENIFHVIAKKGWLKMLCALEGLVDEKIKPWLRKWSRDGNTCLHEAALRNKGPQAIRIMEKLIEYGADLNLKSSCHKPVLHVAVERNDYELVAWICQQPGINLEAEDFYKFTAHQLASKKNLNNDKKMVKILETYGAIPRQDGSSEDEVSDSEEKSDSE
binder,measurement,setting,value
B1,Kd,[1],30300 nM
same,koff,[1],0.00179 s⁻¹
same,kon,[1],59 M⁻¹ s⁻¹
same,Kd,[2],2750 nM
same,koff,[2],0.00378 s⁻¹
same,kon,[2],1380 M⁻¹ s⁻¹
same,Kd,[3],345 nM
same,koff,[3],0.0067 s⁻¹
same,kon,[3],19400 M⁻¹ s⁻¹
same,stoichiometry N,[4],2
B2,stoichiometry N,[5],2
B3,Kd,[1],416 nM
same,koff,[1],0.003 s⁻¹
same,kon,[1],7230 M⁻¹ s⁻¹
same,Kd,[2],783 nM
same,koff,[2],0.00645 s⁻¹
same,kon,[2],8240 M⁻¹ s⁻¹
same,Kd,[3],858 nM
same,koff,[3],0.0067 s⁻¹
same,kon,[3],7810 M⁻¹ s⁻¹
same,stoichiometry N,[6],2
same,Kd,[7],858000 nM
B4,stoichiometry N,[8],2
